Results as given in paper PMC4894398, “Efficient Demyristoylase Activity of SIRT2 Revealed by Kinetic and Structural Studies” (Scientific Reports, 2015).
No end group written: not given here.

T1: SIRT2 (residues 38–356 of the full-length human SIRT2) (human, UniProt Q8IXJ6 38-356)
T1 construct: NAD-dependent protein deacylase sirtuin-2 (SIRT2), human, residues 38-356 of the full-length protein; Cloned into pET28b(+) with an N-terminal hexahistidine and sumo tag; The tag was cut off by Ulp1 and removed on a second Ni-NTA column; source: E. coli BL21 (DE3), purified (Ni-NTA, Ulp1 cleavage, second Ni-NTA, Superdex G200); not shown: His6, N-terminal, cleaved; SUMO, N-terminal, cleaved
T1 sequence (looked up): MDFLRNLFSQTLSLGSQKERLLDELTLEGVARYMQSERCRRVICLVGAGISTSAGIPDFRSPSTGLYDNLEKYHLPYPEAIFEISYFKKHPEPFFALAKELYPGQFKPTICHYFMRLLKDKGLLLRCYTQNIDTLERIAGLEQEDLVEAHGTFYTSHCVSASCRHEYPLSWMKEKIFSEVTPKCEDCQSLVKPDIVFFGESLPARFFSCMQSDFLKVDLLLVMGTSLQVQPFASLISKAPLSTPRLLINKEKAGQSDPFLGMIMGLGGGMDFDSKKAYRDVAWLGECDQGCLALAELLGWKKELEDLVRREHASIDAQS


What was measured:
[1] = biological target: SIRT2 (residues 38–356 of the full-length human SIRT2) (human) (UniProt Q8IXJ6)
[2] = biological target: T1, SIRT2 (residues 38–356 of the …); experiment: crystal structure; 10 mg/mL SIRT2 in 20 mM Tris, 50 mM NaCl, pH 7.5 preincubated on ice with 10 mM BHJH-TM1 for about 1 h; hanging drop, 25% PEG 3350, 0.1 M Hepes pH 7.5; 2.1 Å, two subunits in the asymmetric unit; conditions: both partners purified

Row | Km of demyristoylation of the H3K9 myristoyl peptide by SIRT2 (HPLC kinetics, 0.2 μM SIRT2, 1 mM NAD, 37°C, peptide 0.25-32 μM) [1] [µM] | binding result [2] | Molecule
1 | 0.24 |  | H3K9 myristoyl peptide (histone H3 Lys9 peptide bearing a myristoyl group)
2 |  | binds | PKK(thiomyristoyl)TG (also called Myr Peptide (PKK(Tmy)TG)) [BHJH-TM1 thiomyristoyl peptide (PKK(TMy)TG)]
